The data set deals with the molecule itself. Kind of data set: native gel or EMSA; 12% native PAGE in nonreducing condition (without SDS and β-mercaptoethanol), samples not boiled; monomer chain to dimer (the paper calls it disulfide linked). In general terms: In EMSA bound probe runs differently from free probe, usually more slowly.

B1: recombinant human Bone Morphogenetic Protein 2 (rhBMP2) monomer, from pHT43-BMP2-M (ligand, UniProt P12643 283-396, looked up)
chain: QAKHKQRKRLKSSCKRHPLYVDFSDVGWNDWIVAPPGYHAFYCHGECPFPLADHLNSTNHAIVQTLVNSVNSKIPKACCVPTELSAISMLYLDENEKVVLKNYQDMVVEGCGCR
notes: Bone Morphogenetic Protein 2, human, mature domain / mature peptide (~399 bp amplicon with sites and His-tag); RBMP2-M, translated, gives ...EGCGCR then GRG then HHHHHH and stop, so three residues (GRG) may lie between BMP2 and the His-tag; also called rhBMP (monomer); source: B. subtilis SCK6, secreted into the culture supernatant (pHT43, amyQ signal peptide); purified by FPLC (Resource Q)
One may read the stoichiometry N as a count of units in the complex or per binding partner. For B1, the “stoichiometry N” value stood at 2.

The record behind these values is publication PMC5733156, “Heterologous Secretory Expression and Characterization of Dimerized Bone Morphogenetic Protein 2 in Bacillus subtilis” (BioMed Research International, 2017).
